Results reported in IntAct's records for PubMed 16299177.

B1: ABSCISIC ACID-… 5-like protein 7 (Arabidopsis thaliana (Mouse-ear cress)), Q9M7Q2 (parent)
chain: MGTHINFNNLGGGGHPGGEGSSNQMKPTGSVMPLARQSSVYSLTFDELQNTLGGPGKDFGSMNMDELLKSIWTAEEAQAMAMTSAPAATAVAQPGAGIPPPGGNLQRQGSLTLPRTISQKTVDEVWKCLITKDGNMEGSSGGGGESNVPPGRQQTLGEMTLEEFLFRAGVVREDNCVQQMGQVNGNNNNGFYGNSTAAGGLGFGFGQPNQNSITFNGTNDSMILNQPPGLGLKMGGTMQQQQQQQQLLQQQQQQMQQLNQPHPQQRLPQTIFPKQANVAFSAPVNITNKGFAGAANNSINNNNGLASYGGTGVTVAATSPGTSSAENNSLSPVPYVLNRGRRSNTGLEKVIERRQRRMIKNRESAARSRARKQAYTLELEAEIEKLKKTNQELQKKQAEMVEMQKNELKETSKRPWGSKRQCLRRTLTGPW
partner: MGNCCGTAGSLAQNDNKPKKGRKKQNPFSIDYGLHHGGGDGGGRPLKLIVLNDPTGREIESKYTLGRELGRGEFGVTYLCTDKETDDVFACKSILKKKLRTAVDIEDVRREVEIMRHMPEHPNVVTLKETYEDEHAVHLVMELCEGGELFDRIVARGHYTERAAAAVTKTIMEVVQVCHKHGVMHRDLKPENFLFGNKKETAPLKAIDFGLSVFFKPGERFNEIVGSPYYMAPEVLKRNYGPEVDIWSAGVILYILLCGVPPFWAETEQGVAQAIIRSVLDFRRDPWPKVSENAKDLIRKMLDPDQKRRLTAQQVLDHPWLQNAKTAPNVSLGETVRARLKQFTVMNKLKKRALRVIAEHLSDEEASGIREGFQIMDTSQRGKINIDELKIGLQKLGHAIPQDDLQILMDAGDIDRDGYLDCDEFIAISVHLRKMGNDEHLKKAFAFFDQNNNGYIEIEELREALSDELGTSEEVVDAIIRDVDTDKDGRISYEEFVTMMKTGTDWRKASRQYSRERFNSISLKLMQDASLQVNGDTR

Variants of: B1
Details: with cdpkw_arath CPK32, Q6NLQ6

Variant	effect of a mutation on the interaction
S110A	disrupting interaction

Variants of: B1
Details: with cdpkw_arath CPK32, Q6NLQ6
Remark: another data set of the same source

Variant	effect of a mutation on the interaction
S110A	decreasing interaction
